Test results reported in patent US20030187223A1 (US Dept. of Health and Human Services, published 2003).

Biological target: T1, bovine serum albumin (bovine, UniProt P02769 25-607)
T1 construct: Control coat in the ELISA; also called BSA
Assay: ELISA, wells coated with BSA alone, Wg conditioned medium
Experimental: First, an ELISA was used to measure sFRP-1 binding to Wg. Wells were coated with purified full-length sFRP-1 and then blocked with an excess of BSA. Subsequently, conditioned medium from S2HSWg cells expressing soluble Wg was incubated in the wells overnight at room temperature. As a control, aliquots of the same medium were incubated in wells treated with BSA but not sFRP-1. […] In contrast, little Wg was detected in wells that had not been treated with sFRP-1 , and no signal was observed when medium lacking Wg was used in the assay (FIG. 3, A and B).
sFRP-1/Wg ELISA Binding Assays—sFRP-1 diluted in 0.02% NaN₃/PBS was incubated in 96-well Falcon ELISA plates (300 ng/[…]) for 2 h at 37° C. After decanting, all wells were filled with 4% BSA/0.02% NaN₃/PBS and incubated for an additional 2 h at 37° C. Following five washes with TAPS (0.05% Tween-20 in 0.02% NaN₃/PBS), […] of Wg-containing or S2 control medium diluted in 1% BSA/TAPS were incubated overnight at room temperature. After five washes with TAPS, […] of Wg mAb diluted in 1% BSA/TAPS to a final concentration of […] was incubated in wells for 2 h at 37° C. Another five washes in TAPS were followed by a 2 h treatment at 37° C. with 1:400 dilution of conjugated alkaline phosphatase-goat anti-mouse IgG (Sigma). […] Absorbance at 405 nm was measured with an ELISA plate reader (Bio-Rad, Hercules, Calif.). […]

T1 sequence (P02769 25-607 limits assumed): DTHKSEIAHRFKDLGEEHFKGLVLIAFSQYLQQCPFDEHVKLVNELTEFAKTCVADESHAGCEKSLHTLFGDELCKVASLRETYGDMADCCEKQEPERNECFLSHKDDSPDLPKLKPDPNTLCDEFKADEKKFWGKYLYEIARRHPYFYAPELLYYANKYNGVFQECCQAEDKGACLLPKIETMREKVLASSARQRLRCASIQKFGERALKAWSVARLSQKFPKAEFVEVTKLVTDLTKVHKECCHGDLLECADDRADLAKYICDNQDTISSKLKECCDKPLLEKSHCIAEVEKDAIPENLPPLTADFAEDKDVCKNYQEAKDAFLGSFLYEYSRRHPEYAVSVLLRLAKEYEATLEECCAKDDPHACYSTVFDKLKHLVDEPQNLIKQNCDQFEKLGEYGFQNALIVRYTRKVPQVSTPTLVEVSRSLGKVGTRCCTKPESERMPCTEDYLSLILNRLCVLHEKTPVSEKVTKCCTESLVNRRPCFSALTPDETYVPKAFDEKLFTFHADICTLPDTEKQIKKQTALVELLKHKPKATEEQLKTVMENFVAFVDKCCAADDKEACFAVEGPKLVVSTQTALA

- binding result: no binding
B1: Wingless (Wg), soluble, in conditioned medium of S2HSWg cells (ligand, Drosophila melanogaster, UniProt P09615 18-468, looked up)
chain: GSSLSQVEGKQKSGRGRGSMWWGIAKVGEPNNITPIMYMDPAIHSTLRRKQRRLVRDNPGVLGALVKGANLAISECQHQFRNRRWNCSTRNFSRGKNLFGKIVDRGCRETSFIYAITSAAVTHSIARACSEGTIESCTCDYSHQSRSPQANHQAGSVAGVRDWEWGGCSDNIGFGFKFSREFVDTGERGRNLREKMNLHNNEAGRAHVQAEMRQECKCHGMSGSCTVKTCWMRLANFRVIGDNLKARFDGATRVQVTNSLRATNALAPVSPNAAGSNSVGSNGLIIPQSGLVYGEEEERMLNDHMPDILLENSHPISKIHHPNMPSPNSLPQAGQRGGRNGRRQGRKHNRYHFQLNPHNPEHKPPGSKDLVYLEPSPSFCEKNLRQGILGTHGRQCNETSLGVDGCGLMCCGRGYRRDEVVVVERCACTFHWCCEVKCKLCRTKKVIYTCL
notes: Used as unpurified conditioned medium; also called Wg medium; Wg-containing medium
